Patent US20160145352A1 (INSTITUT NATIONAL DE LA RECHERCHE AGRONOMIQUE, published 2016)

Experiments:
[1] = target: H3 histone (HPLC-purified fraction) (human, UniProt P68431 2-136); test: immunoblot on HPLC-purified histones, VHH-HA plus anti-HA, HRP/ECL
Protocol: (§1) After blocking in TBS-T (Tris buffered saline, 0.1% Tween® 20), 5% skimmed milk, the membrane is incubated for 1 h in a dilution of the VHH-HA polypeptide (5 μg/ml) combined with an anti-HA antibody (HA-11 mouse monoclonal 16B12 from Covance) diluted to 1 μg/ml in TBS-T, 5% skimmed milk. The membranes are also probed with the anti-H2AX (Epitomics clone EPR895) and anti-γH2AX (Millipore) monoclonal antibodies. After 3 washes in TBS-T, the blot is incubated with the anti-mouse secondary antibody coupled to horseradish peroxidase (HRP) (Cell Signaling), then washed 3 times for 10 min. Visualization is carried out with an ECL substrate (Enhanced Chemiluminescence West Dura Thermo scientific). The chemiluminescence photon emission is captured by a camera (G-Box Syngene).
(§2) To this effect, the proteins of the fractions thus obtained, in particular of the fractions containing H2A, H2B and H3, and also a mixture of the H2A and H2B fractions, are separated by electrophoresis in a denaturing polyacrylamide gel (NuPage® Bis Tris, Life Technologies), then transferred onto a nitrocellulose membrane. The visualization is carried out according to the protocol described above.

[2] = target: H2B histone in the monomeric state (HPLC-purified fraction) (human, UniProt P62807 2-126); test: as above
Protocol: as §1, §2

[3] = target: H4 histone (in total histones acid-extracted from HT1080 human cells) (human, UniProt P62805 2-103); test: immunoblot on acid-extracted total histones of HT1080 cells, overlaid on Ponceau red staining

| binding result [1] | binding result [2] | binding result [3] | Binder |
| --- | --- | --- | --- |
| no binding (tested: 5 µg/ml) | no binding (tested: 5 µg/ml) | no binding (tested: 5 µg/ml) | C76-HA polypeptide (VHH C76 fused to the HA tag) (VHH, Secreted into E. coli culture medium from pHEN4-VHH; also called C75-HA (as printed in Experiment 2); VHH-HA; not shown: HA tag from the pHEN4 vector) VHH: QVQLQASGGGLVQAGGSLRLSCAVSGGTLSSYTMGWFRQAPGKEREFVSALSRVGGKSDYADSVKGRFTISRNAKNTVYLQMNSLKPEDTAVYYCAAGGYSRRWSAYNYWGQGTQVTVS |
| no binding (tested: 5 µg/ml) | no binding (tested: 5 µg/ml) | no binding (tested: 5 µg/ml) | C25-HA polypeptide (VHH C25 fused to the HA tag) (VHH, Secreted into E. coli culture medium from pHEN4-VHH; also called VHH-HA; not shown: HA tag from the pHEN4 vector) VHH: QVQLQASGGGLVQAGESLTLSCDASGRTFSIGAMGWFRQAPGKEREFLAAINWNGGYTSYADVASGRFTISRNAKNTVYLQMNSLQPEDTAVYYCAAKYGGSARSRTYDYWGQGTQVTVS |
| no binding (tested: 5 µg/ml) | no binding (tested: 5 µg/ml) | no binding (tested: 5 µg/ml) | S2-HA polypeptide (VHH S2 fused to the HA tag) (VHH, Secreted into E. coli culture medium from pHEN4-VHH; it calls it the VHH domain; also called VHH-HA; not shown: HA tag from the pHEN4 vector) VHH: QVQLQASGGGLVQAGDSLRLSCAAAGRSFSSYAMGWFRQAPGKEREFVAAISRSRGVTYADSVKGRFTISKDNVKNMAYLQMNSLKPEDTGVYYCAATSSGSTRQLSTGRSNYWGQGTQVTVS |
